The target of the series is T1, GST-HY5 (Arabidopsis thaliana, UniProt O24646 1-168).
T1 sequence: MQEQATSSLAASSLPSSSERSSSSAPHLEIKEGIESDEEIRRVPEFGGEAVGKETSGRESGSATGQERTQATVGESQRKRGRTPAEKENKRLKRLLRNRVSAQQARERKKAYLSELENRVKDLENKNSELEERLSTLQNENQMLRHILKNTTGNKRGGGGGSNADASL
The series can be described thus: EMSA; 5 ug protein, 20 fmol probe; shift abolished by unlabeled 52-bp competitor (0.5-4 pmol); LightShift Chemiluminescent EMSA kit (Pierce), 20 uL, 8% native PAGE in 1x TBE; salt, pH and temperature not stated. The settings on record: protein: recombinant; tags: N-terminal GST (pGEX-4T-1); chain copies: 2; label: biotin; blunt. In general terms: Mobility shift assays separate free from complexed probe on a gel.

B1: 391-442 (QH6 promoter G-box probe) (dsDNA)
DNA 1: CCTTTAAGTTGCTCTATTTTGACACGTGGCAAAATAATATCTATCTACCCAC
DNA 2: GTGGGTAGATAGATATTATTTTGCCACGTGTCAAAATAGAGCAACTTAAAGG
Regarding B1, the binding result is “binds”.

The values above are taken from paper PMC4415419, “The bZIP transcription factor HY5 interacts with the promoter of the monoterpene synthase gene QH6 in modulating its rhythmic expression”.
